Data as given in patent US20240084330A1 (BROAD INSTITUTE, published 2024).

B1: MmPNMA3 (mouse PNMA3 produced in E. coli, tags removed) (other, UniProt Q8JZW8 1-466, looked up)
chain: MPLNLLQDWCRGEHLNTQRSMLILGIPEDCSEDEFEETLHEALKHLGRYRIIGRMFRREENAQAFLVELARDFDYALVPREIEGKGGPWEVVVKPPHSDDEFLNRLNHFLEEERRTVSDMNRVLGTHSNHSPTKTTISADFWVWAQTLGAVMQPLLEQMLYRELRVFSGNTISIPGLLAFDSWLEHTTEMLQMWQVPEVEKRRRLMECLRGPALQVVNVLRANNAAITVKECLEALRQVFGSVDNRKIAQLKFCKAYQEPGEKVSSFVVRLETLLQKALEKNAISRKNVNQTRLKRILGGAILSAKLREKLKMLKQRRRPPGFLALVKLFREEEEEWEATRGSERSCYEGLELGPSPSNIGSEERELFVPAFGSVLEERPYQGSRRRRHRRRGQHRKGGVPRDDSQGTRKQNYDTFCYSCGEDGHIRVHCFNPSNRTLVKQKRQAAMEKGNRSWAWEKSHPKPKTK
notes: Cloned from mouse cDNA into a TwinStrep-SUMO backbone; tags cleaved with SUMO protease before size exclusion
B2: MmPNMA5 (mouse PNMA5 produced in E. coli, tags removed) (other, UniProt Q5DTT8 1-618, looked up)
chain: MAVALLDDWCKGMDLDPKKAVLIVGIPVQYTEAAINDALKEGLPPLCAYKVIGRMFRREDEAKAVLIELPEVVDYTMMPTHIPAEGGAWEVVVKPRSPDDEFMNKLIYFLRDEGRRIVDVAKALGFSTVPTGKIELKNLDQDKPKGLKSLCNNSTCYKKLKVFSGSPFPGPGEESFETWLEEVTELMQLWQVSEREKKQCLLESLRGSALSIMQALWTSNDSLTVEQCLKALKHIFGNKEDSKVLQFRFLQSSQKPAEKVSDYLLRLEPLLQKAVQQSPLSAHSADSIRLKHVLSQVSMTTGLRGKLSLLDQQGCPPTFLELMKLTRDEEEWESTVVVEEQEQVRRDSSACEAANEVVTQAEDSREVSTQTTGEEMTSVKRRRLLWRHSAGEEGQRKESGFWAESEPDEQKPYVRAQESGNERGAWAVSHPNPKEIEAQDSQEFLPVAGNRDTLTKSWGSPDKGTGDMSVAEGQQGQGKAPNFLLARNDPNKQEQIPHSSVTTKWQDRGECQRLKWGASMITRPQGNPDRSWDTSGSQDGEDGCSELRMPTGTEAAQGVEEPATGLSWAEDTSAWEQARLGRETVPRRGGRRIQPVFRIIYTALGEPHEGSTLESFRE
notes: as for B1
B3: MmMOAP1 (mouse MOAP1 produced in E. coli, tags removed) (other, UniProt Q9ERH6 1-352, looked up)
chain: MTLRLLEDWCRGMDMNPRKALLVAGIPPTCGVADIEEALQAGLAPLGEHRLLGRMFRRDENKNVALIGLTVETGSALVPKEIPAKGGVWRVIFKPPDTDSDFLCRLNEFLKGEGMTMGELTRVLGNRNDPLGLDPGIMIPEIRAPMLAQALNEALKPTLQYLRYKKLSVFSGRDPPGPGEEEFESWMFHTSQVMKTWQVSDVEKRRRLIESLRGPAFEIIRVLKINNPFITVAECLKTLETIFGIIDNPRALQVKYLTTYQKTDEKLSAYVLRLEPLLQKLVQKGAIEKEVVNQARLDQVIAGAVHKSVRRELGLPEGSPAPGLLQLLTLIKDKEAEEEEVLLQAELEGYCT
notes: Cloned from mouse cDNA into a TwinStrep-SUMO backbone; tags cleaved with SUMO protease before size exclusion; also called modulator of apoptosis 1; Pnma4

Molecular target: the molecule itself
Assay: self-assembly of E. coli-produced protein; size exclusion and electron microscopy

Binding result, binds:
B1
B2
B3
